The Km is the concentration of substrate that gives half-maximal velocity. The kcat is the maximal rate divided by the concentration of active sites. The term kcat/Km denotes the second-order rate constant that governs catalysis at low substrate concentration.

Common to all, as to assay: p-nitrophenol release, Lineweaver-Burk
What all share (format): biochemical, Pyrobaculum ferrireducens

Substrate in data set [1]: CC(=O)Oc1ccc([N+](=O)[O-])cc1
To be noted: 50 mM Tris-HCl pH 9.0, 80 °C. The source says:
(§1) p-nitrophenol release, Lineweaver-Burk on rP186_1588 ([…]_1588)

Substrate in data set [2]: CCCC(=O)Oc1ccc([N+](=O)[O-])cc1
To be noted: 50 mM Tris-HCl pH 9.0, 80 °C.
Description: as §1

Substrate in data set [3]: CCCCCCCC(=O)Oc1ccc([N+](=O)[O-])cc1
Particulars: 50 mM Tris-HCl pH 9.0, 80 °C.
Description: as §1

Substrate in data set [4]: CCCCCCCCCC(=O)Oc1ccc([N+](=O)[O-])cc1
To be noted: 50 mM Tris-HCl pH 9.0, 80 °C, substrate tested at 0.1-3 mM only.
Description: as §1

B1: rP186_1588 (P186_1588) (Pyrobaculum ferrireducens) (protein)
chain: MSEKYVAVEGRRVRYLVGGSGRPVVLLHGWSFNADTWVESGVFNSLAGHFAVYAIDMPYGIRTKSERFQAPRREYAVFLRRVLDALDLADPPLVGPSASGEVVLWYVAKRLPTRAAVVVGPVGLAGELLEELRGAGVPILAVWGEGDEVSPPSRASLLRDVAKVVILRDAGHAAYLDKPGEFVEVVLDFLRGVY
notes: full length 194 aa (21,131 Da calculated, ~23 kDa on SDS-PAGE), His-tagged, synthetic gene in pET-28a(+) NdeI/BamHI, E. coli BL21(DE3), Ni-NTA purified, tag removal not mentioned
In the case of B1, the Km in data set [1] was 350 ± 10 µM; in data set [2], 1270 ± 40 µM; in data set [3], 2640 ± 140 µM; in data set [4], 4990 ± 210 µM. The kcat in data set [1] is 11.7 ± 0.48 s⁻¹; in data set [2], 9.12 ± 0.62 s⁻¹; in data set [3], 6.36 ± 0.28 s⁻¹; in data set [4], 6.19 ± 0.33 s⁻¹. Further, the kcat/Km turned out to be 33300 ± 1370 M⁻¹ s⁻¹ in data set [1], 7180 ± 190 M⁻¹ s⁻¹ in data set [2], 2410 ± 110 M⁻¹ s⁻¹ in data set [3] and 1240 ± 70 M⁻¹ s⁻¹ in data set [4].

Source of the values: article PMC4200780, “Biochemical Characterization of a Carboxylesterase from the Archaeon Pyrobaculum sp. 1860 and a Rational Explanation of Its Substrate Specificity and Thermostability” (International Journal of Molecular Sciences, 2014).
